Results reported in publication PMC3627587.
Read-outs that look alike come from different tables or passages of the source.

Experiments:
[1] = biological target: T1, sIHF (Streptomyces coelicolor, UniProt Q9KXR9 1-107); experiment: EMSA
T1 sequence: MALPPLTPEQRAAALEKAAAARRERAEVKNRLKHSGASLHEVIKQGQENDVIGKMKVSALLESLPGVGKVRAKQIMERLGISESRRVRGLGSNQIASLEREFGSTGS

[2] = biological target: T1, sIHF; experiment: EMSA; remark: listed apart in the source

B1: 60-bp dsDNA (dsDNA)
DNA 1: CGTACGCGTCGCCACGGCGGCGGCATCGTCCACGAGAACACCCGCCACACCACCCGCTTC
DNA 2: GAAGCGGGTGGTGTGGCGGGTGTTCTCGTGGACGATGCCGCCGCCGTGGCGACGCGTACG
B1: binds [1].

B2: 43-bp dsDNA (dsDNA)
DNA 1: ACCAGGTGGTTGCCGATCACCACGAAGCGGGTGGTGTGGCGGG
DNA 2: CCCGCCACACCACCCGCTTCGTGGTGATCGGCAACCACCTGGT
B2: binds [1].

B3: 19-bp duplex (20bp OH1/OH2) (dsDNA)
DNA 1: GAGGGAGTGCGTGGGTCTGA
DNA 2: CTCAGACCCACGCACTCCCT
B3: binds [2].
